In article PMC12019173, “Liganded magnetic nanoparticles for magnetic resonance imaging of α-synuclein” (NPJ Parkinson's Disease, 2025):
No end group written: not given here.

B1: 24mer-liganded magnetic nanoparticles (other)
peptide: GAVVWGVTAVKKGRKKRRQRRRPQ
modifications: also: covalently coupled to amine-functionalized dextran-coated iron oxide nanoparticle
notes: two lysine linker; cell penetrating peptide; Multivalent; also called 24mer-LMNPs
B2: 24mer (designed binder)
peptide: GAVVWGVTAVKKGRKKRRQRRRPQ
notes: two lysine linker; cell penetrating peptide; 24 residues; also called 24-residue peptide
B3: R8 (designed binder)
peptide: RVGGARVWGVRKKGRKKRRQRRRPQ
notes: two-lysine linker; cell penetrating peptide (the methods call it the Tat peptide; detected with an anti-HIV-1 tat antibody); 25 residues; also called R8 peptide; source: synthetic peptide (Genscript or LifeTein)
B4: R8-liganded magnetic nanoparticles (other)
peptide: RVGGARVWGVRKKGRKKRRQRRRPQ
modifications: also: covalently coupled to amine-functionalized dextran-coated iron oxide nanoparticle
notes: two-lysine linker; cell penetrating peptide; Multiple R8 ligands on each nanoparticle (multivalent, avidity); also called R8-LMNPs; R8-LMNP

Columns and labels:
Details in all cases: both partners purified
[1] = molecular target: T1, recombinant α-synuclein fibrils (human, UniProt P37840 1-140); test: SPR; α-syn fibrils on the SPR chip, LMNPs flowed over; LMNPs would not dissociate, no Kd calculated
[2] = molecular target: T1, recombinant α-synuclein fibrils; test: SPR; short, sonicated α-syn fibrils immobilised on a CM5 chip, BiaCore T200; peptides 300 nM to 10 μM in PBS; steady state analysis, 1:1 binding model; apparent Kd
[3] = molecular target: MSA brain-derived α-synuclein fibrils (human (endogenous in brain tissue), UniProt P37840 1-140); test: negative-stain transmission electron microscopy; brain-derived (sarkosyl-insoluble) fibrils mixed with R8-LMNPs (3 μg/mL), 4 °C overnight, 2% uranyl acetate
[4] = molecular target: DLB brain-derived α-synuclein fibrils (human (endogenous in brain tissue), UniProt P37840 1-140); test: as above

Binder	binding result [1]	Kd [2]	binding result [3]	binding result [4]
B1	binds			
B2		3700 nM		
B3		470 nM		
B4	binds		binds	binds
